No end group written: not given here.
Legend:
[1] = The results of in vitro plasma stability, microsomal stability, CYP inhibition and PK profile of S100A8/A9 peptides and rCT-S100A8/A9 proteins; conditions: mouse, plasma, ip, 1 mg/kg
Procedure: Table printed on a drawing sheet, Fig. 5B
Title: The results of in vitro plasma stability, microsomal stability, CYP inhibition and PK profile of S100A8/A9 peptides and rCT-S100A8/A9 proteins
The patent's description of the figure: FIGS. 5A and 5B show the drug-like properties of rCT-S100A8/A9. […] Bacteria-purified 6×His-rCT-S100A8/9, rVehicle or rCT was analyzed by Coomassie staining or IB using αHis (bottom, left). BMDMs were incubated with rVehicle, rCT, or rCT-S100A8/9 for the indicated times and at the indicated concentrations, and then cell viability was measured by MTT assay (bottom, right). […] HLM, human liver microsomes; CYP, cytochrome P450. aTmax, arrival time; AUClast, total area under the plasma concentration-time curve from time 0 to the time of the last measurement; Cmax, maximum plasma concentration;
First reader's note: All values were measured after ip dosing of 1 mg/kg in mice (n = 5); the footnote for the raised a is not printed on the sheet, and the title stands once above both tables.

[2] = test system: OxaR CRC cells (HT29, HCT116 and SW480); test: WST-8-based cell viability assay in parental and drug-resistant CRC cell lines; conditions: HT29, HCT116, SW480 OxaR; 24 hours
Source text: To establish a CRC cell model resistant to oxaliplatin, doxorubicin, or 5-FU, HT29, HT116, and SW480 cells were exposed to progressively increasing concentrations of oxaliplatin, doxorubicin, or 5-FU. The established oxaliplatin, doxorubicin, and 5-FU resistant cells were named OxaR, DoxR, and 5-FuR cells, respectively.
To confirm the inhibitory effect of rCT-S100A8/A9 on oxaliplatin resistance, the present inventors performed a water-soluble tetrazolium-8 (WST-8)-based cell viability assay using parental cells of three CRC cell lines, HT29, HCT-116 and SW480, and their corresponding oxaliplatin-resistant (OxaR) cell lines. OxaR CRC cells (HT29, HCT116 and SW480) were established by long-term exposure of CRC cells to oxaliplatin as described in Example 1.

[3] = biological target: T1, endogenous RAGE of mouse BMDMs and mouse colon (mouse, UniProt Q62151 23-402); test: co-IP from colon lysates of acute colitis, chronic colitis and CRC mice (IP αRAGE, IB αS100A8), FIG. 1D
T1 construct: whole, on cells; Endogenous protein, immunoprecipitated with αRAGE from BMDM or colon lysates; also called receptor for advanced glycation end products
T1 sequence (Q62151 23-402): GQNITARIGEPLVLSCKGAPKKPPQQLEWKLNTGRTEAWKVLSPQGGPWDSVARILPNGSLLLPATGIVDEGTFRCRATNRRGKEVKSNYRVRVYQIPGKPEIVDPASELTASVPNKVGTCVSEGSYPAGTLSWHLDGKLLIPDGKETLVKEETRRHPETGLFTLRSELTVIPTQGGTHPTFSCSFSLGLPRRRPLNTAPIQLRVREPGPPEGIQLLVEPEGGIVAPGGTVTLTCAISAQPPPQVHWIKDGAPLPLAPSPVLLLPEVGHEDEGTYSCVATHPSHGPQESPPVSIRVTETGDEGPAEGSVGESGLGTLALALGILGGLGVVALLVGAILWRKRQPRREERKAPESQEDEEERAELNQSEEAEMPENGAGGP
Procedure: (§1) The 293T cells were used for immunoprecipitation (IP) including αMyc, and then for immunoblotting (IB) including αHA or αHis. […] Bone marrow-derived macrophages (BMDMs) were incubated with rHA-S100A8 or rHis-S100A9 (5 μg/ml) for 10 minutes. The BMDMs were subjected to IP using αTLR4 (FIG. 1A, right) or αRAGE (FIG. 1B, right), and then subjected to IB using αHA, αHis, αTLR4, or αRAGE. The WCLs were used for IB including αHA, αHis, αTLR4, αRAGE, or αActin. In FIG. 1C, on the left, relative expression of S100A8 or S100A9 in colons of normal, acute colitis, chronic colitis, and colorectal cancer mice was determined, and biological replicates (n=10) were used for each condition. On the right, IB was performed on sera from normal, acute colitis, chronic colitis, and colorectal cancer mice using αS100A8 or αS100A9. Coomassie blue (CB)-stained gels show consistent loading of serum proteins. Data from 3 out of 10 samples is shown. […] The WCLs were used for IB including αS100A8, αS100A9, αTLR4, αRAGE, or αActin. Data is representative of seven independent experiments with similar results (FIGS. 1A-1D);
(§2) 293T, BMDMs, and THP-1 cells were treated as indicated and processed for analysis by GST pulldown, Western blotting, and co-IP analysis. For GST pulldown, 293T cells were harvested and lysed in an NP-40 buffer including a complete protease inhibitor cocktail (Roche, Basel, Switzerland). […]

[4] = biological target: T2, endogenous TLR4 of mouse BMDMs and mouse colon (mouse, UniProt Q9QUK6 26-835); test: co-IP from mouse colon lysates (IP αTLR4, IB αS100A8), FIG. 1D
T2 construct: whole, on cells; Endogenous protein, immunoprecipitated with αTLR4 from BMDM or colon lysates; also called toll-like receptor 4
T2 sequence (looked up): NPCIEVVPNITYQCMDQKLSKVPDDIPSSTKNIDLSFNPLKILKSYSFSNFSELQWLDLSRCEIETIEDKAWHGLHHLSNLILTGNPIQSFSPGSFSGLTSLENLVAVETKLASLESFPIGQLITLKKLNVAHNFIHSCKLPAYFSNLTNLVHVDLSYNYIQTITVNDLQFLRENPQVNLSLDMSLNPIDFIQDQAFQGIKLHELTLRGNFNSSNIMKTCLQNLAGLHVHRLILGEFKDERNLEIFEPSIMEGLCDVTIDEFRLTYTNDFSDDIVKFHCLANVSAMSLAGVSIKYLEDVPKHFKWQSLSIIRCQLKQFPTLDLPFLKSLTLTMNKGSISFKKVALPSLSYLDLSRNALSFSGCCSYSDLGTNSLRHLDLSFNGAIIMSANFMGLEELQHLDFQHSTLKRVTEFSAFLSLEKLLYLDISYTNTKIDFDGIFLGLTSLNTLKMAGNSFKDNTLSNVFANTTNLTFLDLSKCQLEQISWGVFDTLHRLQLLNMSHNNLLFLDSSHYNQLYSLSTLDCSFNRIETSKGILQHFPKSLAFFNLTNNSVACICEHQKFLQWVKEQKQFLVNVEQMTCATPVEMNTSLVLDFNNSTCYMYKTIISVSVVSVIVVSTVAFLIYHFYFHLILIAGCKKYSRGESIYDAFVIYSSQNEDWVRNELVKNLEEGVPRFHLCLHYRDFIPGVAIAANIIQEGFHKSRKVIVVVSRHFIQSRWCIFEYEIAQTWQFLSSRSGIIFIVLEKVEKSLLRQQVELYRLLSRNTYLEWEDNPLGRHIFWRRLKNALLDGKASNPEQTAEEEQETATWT
Procedure: as §1, §2

[5] = biological target: T2, endogenous TLR4 of mouse BMDMs and …; test: co-IP in BMDMs incubated with recombinant protein at 5 µg/ml (IP αTLR4, IB αHA), FIG. 1A
Procedure: as §1, §2

[6] = biological target: T1, endogenous RAGE of mouse BMDMs and …; test: co-IP in BMDMs incubated with recombinant protein at 5 µg/ml (IP αRAGE, IB αHA), FIG. 1B
Procedure: as §1, §2

[7] = biological target: T1, endogenous RAGE of mouse BMDMs and …; test: co-IP in BMDMs incubated with recombinant protein at 5 µg/ml (IP αRAGE, IB αHis), FIG. 1B
Procedure: as §1, §2

[8] = biological target: T2, endogenous TLR4 of mouse BMDMs and …; test: co-IP in BMDMs incubated with recombinant protein at 5 µg/ml (IP αTLR4, IB αHis), FIG. 1A
Procedure: as §1, §2

[9] = biological target: T1, endogenous RAGE of mouse BMDMs and …; test: co-IP from colon lysates of acute colitis, chronic colitis and CRC mice (IP αRAGE, IB αS100A9), FIG. 1D
Procedure: as §1, §2

[10] = biological target: T2, endogenous TLR4 of mouse BMDMs and …; test: co-IP from colon lysates of acute colitis, chronic colitis and CRC mice (IP αTLR4, IB αS100A9), FIG. 1D
Procedure: as §1, §2

TLR4 or RAGE = test: Co-IP of recombinant S100A8 or S100A9 with endogenous TLR4 or RAGE in BMDMs; assay type: binding, mouse; conditions: 5 μg/ml, 10 minutes
Procedure: 293T, BMDMs, and THP-1 cells were treated as indicated and processed for analysis by GST pulldown, Western blotting, and co-IP analysis. For GST pulldown, 293T cells were harvested and lysed in an NP-40 buffer including a complete protease inhibitor cocktail (Roche, Basel, Switzerland). After centrifugation, the supernatant was pre-cleared using protein A/G beads for two hours at 4° C. The pre-cleared lysates were mixed with a 50% slurry of glutathione-conjugated Sepharose beads (Amersham Biosciences, Amersham, UK), and binding reactions were performed for four hours at 4° C. by incubating the lysates at 4° C. The precipitate was extensively washed with a lysis buffer. Proteins bound to the glutathione beads were eluted by boiling for five minutes in a sodium dodecyl sulfate (SDS) loading buffer. For IP, cells were harvested and lysed in an NP-40 buffer supplemented with a complete protease inhibitor cocktail (Roche, Switzerland). […] For immunoblotting (IB), polypeptides were analyzed by SDS-polyacrylamide gel electrophoresis and transferred to polyvinylidene difluoride (PVDF) membranes (Bio-Rad, Hercules, CA, USA). […] Antibody binding was visualized by chemiluminescence (ECL; Millipore, Burlington, MA, USA) and detected using a Vilber chemiluminescence analyzer (Fusion SL 3; Vilber Lourmat). […]

## FLVIKGGAHKSHKGGITIITFGGGHHGG [S100A8/A9]
[1]; read-out: PK parameters (ip, 1 mg/kg, mice (n = 5))^a | Cmax
  Cmax: 0.102 ± 0.0412 µg/mL
[1]; read-out: PK parameters (ip, 1 mg/kg, mice (n = 5))^a | T1/2 (converted)
  half-life: 25.2 ± 30.6 min

## O=C1[O][Pt]2([NH][C@@H]3CCCC[C@H]3[NH]2)[O]C1=O [oxaliplatin, reference compound]
[2]
  cell viability of OxaR CRC cells: significant resistance to oxaliplatin treatment

B1: endogenous mouse S100A8 (ligand, UniProt P27005 2-89, looked up)
chain: PSELEKALSNLIDVYHNYSNIQGNHHALYKNDFKKMVTTECPQFVQNINIENLFRELDINSDNAINFEEFLAMVIKVGVASHKDSHKE
notes: Endogenous protein detected with αS100A8 in co-immunoprecipitates
[3]
  binding result: binds
[4]
  binding result: binds

B2: rHA-mS100A8 (ligand)
chain: B1 chain
notes: Recombinant protein added to BMDMs at 5 µg/ml; also called rHA-S100A8; rS100A8; not shown: HA tag
[5]
  binding result: binds
[6]
  binding result: binds

B3: rHis-mS100A9 (ligand)
chain: ANKAPSQMERSITTIIDTFHQYSRKEGHPDTLSKKEFRQMVEAQLATFMKKEKRNEALINDIMEDLDTNQDNQLSFEECMMLMAKLIFACHEKLHENNPRGHGHSHGKGCGK
notes: Recombinant protein added to BMDMs at 5 µg/ml; also called rHis-S100A9; rS100A9; not shown: His tag
[7]
  binding result: binds
[8]
  binding result: binds

B4: endogenous mouse S100A9 (ligand, UniProt P31725 2-113, looked up)
chain: B3 chain
notes: Endogenous protein detected with αS100A9 in co-immunoprecipitates
[9]
  binding result: binds
[10]
  binding result: binds

B5: rHis-mS100A9: recombinant His-tagged S100A9 protein (protein)
chain: B3 chain
modifications: left off: small tags and cut ends
notes: recombinant His-tagged S100A9 protein
TLR4 or RAGE
  binding to PRRs (TLR4 and RAGE): stronger binding to PRRs (TLR4 and RAGE) than rHA-mS100A8
